Reference: patent US20250282820A1, “PEPTIDE COMPLEX HAVING TRKB BINDING ACTIVITY” (PEPTIDREAM INC, priority 2022, published 2025)
*1 amine or outer side, *2 acyl side, *3 side chain or, on linkers, in order; H or OH if unused. Where a SMILES comes first, the peptide text is derived from it. Bridges are numbered along the chain shown (N, C = ends). Roman numbers before positions name the chains, in order. Where no end group is shown, it is not given here. [ ]: non-standard residue; d: D form. CO(CH2CH2O)9CH2CH2CO = O=C(CCOCCOCCOCCOCCOCCOCCOCCOCCOCCC(=O)[*:2])[*:1]; 3Pal = N[C@@H](Cc1cccnc1)C(=O)O

B1: peptide complex, dimer structure No. 51 (peptide sequence No. 15 + linker structure No. 10) (peptide)
peptide: {CH2CO}-FSPY[3Pal]WPTYSE[3Pal]VECG
modifications: thioether N-15; also: homodimer via linker No. 10 (PEG2c-K-cPEG1c-K-PEG2c) at Gly16
B2: peptide complex, dimer structure No. 33 (peptide sequence No. 15 + linker structure No. 4) (peptide)
peptide: {CH2CO}-FSPY[3Pal]WPTYSE[3Pal]VECG
modifications: thioether N-15; also: homodimer via linker No. 4 (PEG8c-K-cPEG1c-K-PEG8c) at Gly16

What follows are molecules tested against TrkB (Homo sapiens, UniProt Q16620) (assay: PathHunter eXpress TrkB Functional Assay (phosphorylation of TrkB)). Conditions: maximum signal induced by BDNF = 100%; stimulation for 3 hours.
Chain of TrkB (Q16620 32-822): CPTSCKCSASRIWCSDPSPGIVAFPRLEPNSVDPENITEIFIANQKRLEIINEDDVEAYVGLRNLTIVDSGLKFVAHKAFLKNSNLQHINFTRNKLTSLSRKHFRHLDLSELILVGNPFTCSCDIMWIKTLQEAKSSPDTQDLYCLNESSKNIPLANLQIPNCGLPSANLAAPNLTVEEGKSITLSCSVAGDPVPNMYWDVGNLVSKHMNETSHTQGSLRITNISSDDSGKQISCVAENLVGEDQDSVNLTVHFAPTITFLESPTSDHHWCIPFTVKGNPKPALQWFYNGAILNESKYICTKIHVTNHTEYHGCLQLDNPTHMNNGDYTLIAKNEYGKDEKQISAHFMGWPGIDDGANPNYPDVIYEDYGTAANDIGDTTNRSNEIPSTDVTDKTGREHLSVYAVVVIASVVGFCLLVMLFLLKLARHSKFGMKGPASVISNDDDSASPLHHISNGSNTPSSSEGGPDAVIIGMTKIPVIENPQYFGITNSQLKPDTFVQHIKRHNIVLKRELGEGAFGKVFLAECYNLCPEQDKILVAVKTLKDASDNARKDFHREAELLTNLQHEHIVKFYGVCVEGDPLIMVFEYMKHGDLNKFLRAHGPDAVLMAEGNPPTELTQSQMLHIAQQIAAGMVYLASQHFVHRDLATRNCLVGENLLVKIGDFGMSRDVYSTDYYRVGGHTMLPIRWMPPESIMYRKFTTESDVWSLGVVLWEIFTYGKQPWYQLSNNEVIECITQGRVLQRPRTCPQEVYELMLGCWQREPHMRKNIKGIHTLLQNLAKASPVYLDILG
Assay type: cell-based
Experimental: To evaluate the TrkB activation potency of the TrkB agonist peptide of the present invention, the phosphorylation of TrkB was examined. The PathHunter (registered trademark) eXpress TrkB Functional Assay kit (DiscoverX; cells, 96-well plate, medium, and detection reagents included) was used and the evaluation was performed according to the attached protocols. The frozen cells were thawed and suspended in the medium, then seeded into a 96-well plate at 10,000 cells per well and incubated for 48 hours. Thereafter, Recombinant Human BDNF Protein (R&D Systems) or a peptide was added, and after stimulation for 3 hours, a detection reagent was added. The reaction was performed while protected from the light at room temperature for 60 minutes, and luminescent signals were measured using a SpectraMax Paradigm Multi-Mode Microplate Reader (Molecular Devices). The obtained signals were analyzed with GraphPad Prism, and the activity (%) was calculated with the maximum value of the signals induced by BDNF as 100% and a signal with no stimulation as 0%.
The BDNF was evaluated at 8 points (0.006 nM to 100 nM) from 100 nM using 4-fold dilutions. The peptide was evaluated in the measurement ranges A to C shown below. • Measurement range A=6 points from 100 nM using 5-fold dilutions (0.032 nM to 100 nM) • Measurement range B=8 points from 100 nM using 4-fold dilutions (0.006104 nM to 100 nM) • Measurement range C=4 points from 10 nM using 10-fold dilutions (0.01 nM to 10 nM)

For CC(C)[C@@H]1NC(=O)[C@H](Cc2cccnc2)NC(=O)[C@H](CCC(=O)O)NC(=O)[C@H](CO)NC(=O)[C@H](Cc2ccc(O)cc2)NC(=O)[C@H]([C@@H](C)O)NC(=O)[C@@H]2CCCN2C(=O)[C@H](Cc2c[nH]c3ccccc23)NC(=O)[C@H](Cc2cccnc2)NC(=O)[C@H](Cc2ccc(O)cc2)NC(=O)[C@@H]2CCCN2C(=O)[C@H](CO)NC(=O)[C@H](Cc2ccccc2)NC(=O)CSC[C@@H](C(=O)NCC(=O)N[C@@H](CCCCNC(=O)CCOCCOCCOCCOCCOCCOCCOCCOCCOCCC(=O)NCCCC[C@H](NC(=O)CNC(=O)[C@@H]2CSCC(=O)N[C@@H](Cc3ccccc3)C(=O)N[C@@H](CO)C(=O)N3CCC[C@H]3C(=O)N[C@@H](Cc3ccc(O)cc3)C(=O)N[C@@H](Cc3cccnc3)C(=O)N[C@@H](Cc3c[nH]c4ccccc34)C(=O)N3CCC[C@H]3C(=O)N[C@@H]([C@@H](C)O)C(=O)N[C@@H](Cc3ccc(O)cc3)C(=O)N[C@@H](CO)C(=O)N[C@@H](CCC(=O)O)C(=O)N[C@@H](Cc3cccnc3)C(=O)N[C@@H](C(C)C)C(=O)N[C@@H](CCC(=O)O)C(=O)N2)C(N)=O)C(N)=O)NC(=O)[C@H](CCC(=O)O)NC1=O [compound 47] (I: {CH2CO}-FSPY[3Pal]WPTYSE[3Pal]VECGK-NH2 / II: {CH2CO}-FSPY[3Pal]WPTYSE[3Pal]VECGK-NH2; linker I:17-II:17 via CO(CH2CH2O)9CH2CH2CO; thioether I:N-I:15, II:N-II:15), the Emax was 107%.

Each molecule was assayed against TrkB of the cells of the PathHunter eXpress TrkB Functional Assay kit (DiscoverX) (UniProt Q16620 32-822, limits assumed) (assay: cell-based or functional assay). Conditions: not given.
Chain of TrkB of the cells of the PathHunter eXpress TrkB Functional Assay kit (DiscoverX) (Q16620 32-822 limits assumed): as the sequence (Q16620 32-822) above

Going from {CH2CO}-FLPY[3Pal]WPTYSL[3Pal]VWCG (thioether N-15; also: homodimer via linker No. 2 (PEG8c-K-PEG8c) at Gly16) [peptide complex, dimer structure No. 2 (peptide sequence No. 3 + linker structure No. 2)] to {CH2CO}-FEPY[3Pal]WPTYSE[3Pal]VECG (thioether N-15; also: homodimer via linker No. 14 (K-OCOPEG13OCO-K) at Gly16) [peptide complex, dimer structure No. 57 (peptide sequence No. 17 + linker structure No. 14)], the “PathHunter Emax (BDNF maximum = 100%)” value rises from 89% to 99%.

First: {CH2CO}-FLPY[3Pal]WPTYSE[3Pal]VECG (thioether N-15; also: homodimer via linker No. 2 (PEG8c-K-PEG8c) at Gly16) [peptide complex, dimer structure No. 14 (peptide sequence No. 14 + linker structure No. 2)]
Second: {CH2CO}-FLPY[3Pal]WPTYSL[3Pal]VWCG (thioether N-15; also: homodimer via linker No. 3 (PEG12c-K-PEG12c) at Gly16) [peptide complex, dimer structure No. 3 (peptide sequence No. 3 + linker structure No. 3)]
The “PathHunter Emax (BDNF maximum = 100%)” value of the first is lower: 86% for the first, 89% for the second.

Compared with {CH2CO}-FSPY[3Pal]WPTYSE[3Pal]VECG (thioether N-15; also: homodimer via linker No. 2 (PEG8c-K-PEG8c) at Gly16) [peptide complex, dimer structure No. 15 (peptide sequence No. 15 + linker structure No. 2)], B1 is higher in “PathHunter Emax (BDNF maximum = 100%)” value: 104% for the first, 106% for the second.

{CH2CO}-FSPY[3Pal]WPTYSE[3Pal]VECG (thioether N-15; also: homodimer via linker No. 6 (K-cPEG9c-K) at Gly16) [peptide complex, dimer structure No. 47 (peptide sequence No. 15 + linker structure No. 6)] and {CH2CO}-FSPY[3Pal]WPTYSE[3Pal]VECG (thioether N-15; also: homodimer via linker No. 8 (K-cPEG17c-K) at Gly16) [peptide complex, dimer structure No. 49 (peptide sequence No. 15 + linker structure No. 8)] are the same in “PathHunter Emax (BDNF maximum = 100%)” value: 107% for the first, 107% for the second.

First: {CH2CO}-FEPY[3Pal]WPTYSE[3Pal]VSCG (thioether N-15; also: homodimer via linker No. 2 (PEG8c-K-PEG8c) at Gly16) [peptide complex, dimer structure No. 18 (peptide sequence No. 18 + linker structure No. 2)]
Second: B2
The “PathHunter Emax (BDNF maximum = 100%)” value of the first is lower: 93% for the first, 96% for the second.

{CH2CO}-FSPY[3Pal]WPTYSE[3Pal]VECG (thioether N-15; also: homodimer via linker No. 14 (K-OCOPEG13OCO-K) at Gly16) [peptide complex, dimer structure No. 55 (peptide sequence No. 15 + linker structure No. 14)] was tested, and the “PathHunter Emax (BDNF maximum = 100%)” value was 104%.

Going from {CH2CO}-FEPY[3Pal]WPTYSE[3Pal]VECG (thioether N-15; also: homodimer via linker No. 14 (K-OCOPEG13OCO-K) at Gly16) [peptide complex, dimer structure No. 57 (peptide sequence No. 17 + linker structure No. 14)] to {CH2CO}-FLPY[3Pal]WPTYSE[3Pal]VECG (thioether N-15; also: homodimer via linker No. 2 (PEG8c-K-PEG8c) at Gly16) [peptide complex, dimer structure No. 14 (peptide sequence No. 14 + linker structure No. 2)], the “PathHunter EC50” value falls from 0.669 nM to 0.197 nM (3.4-fold).

First: {CH2CO}-FSPY[3Pal]WPTYSE[3Pal]VECG (thioether N-15; also: homodimer via linker No. 2 (PEG8c-K-PEG8c) at Gly16) [peptide complex, dimer structure No. 15 (peptide sequence No. 15 + linker structure No. 2)]
Second: B1
The “PathHunter EC50” value of the first is 2.1-fold lower: 0.29 nM for the first, 0.599 nM for the second.

{CH2CO}-FSPY[3Pal]WPTYSE[3Pal]VECG (thioether N-15; also: homodimer via linker No. 6 (K-cPEG9c-K) at Gly16) [peptide complex, dimer structure No. 47 (peptide sequence No. 15 + linker structure No. 6)] and {CH2CO}-FSPY[3Pal]WPTYSE[3Pal]VECG (thioether N-15; also: homodimer via linker No. 8 (K-cPEG17c-K) at Gly16) [peptide complex, dimer structure No. 49 (peptide sequence No. 15 + linker structure No. 8)] are within 1.5-fold of each other in “PathHunter EC50” value: 0.556 nM for the first, 0.644 nM for the second.

{CH2CO}-FEPY[3Pal]WPTYSE[3Pal]VSCG (thioether N-15; also: homodimer via linker No. 2 (PEG8c-K-PEG8c) at Gly16) [peptide complex, dimer structure No. 18 (peptide sequence No. 18 + linker structure No. 2)] and B2 are within 1.5-fold of each other in “PathHunter EC50” value: 0.26 nM for the first, 0.354 nM for the second.

For {CH2CO}-FSPY[3Pal]WPTYSE[3Pal]VECG (thioether N-15; also: homodimer via linker No. 14 (K-OCOPEG13OCO-K) at Gly16) [peptide complex, dimer structure No. 55 (peptide sequence No. 15 + linker structure No. 14)], the “PathHunter EC50” value was 0.581 nM.
